To fix the notation:
B3: HCMV UL44 (DNA polymerase processivity factor), full-length, yeast two-hybrid fusion (natural protein)
chain: MDRKTRLSEPPTLALRLKPYKTAIQQLRSVIRALKENTTVTFLPTPSLILQTVRSHCVSKITFNSSCLYITDKSFQPKTINNSTPLLGNFMYLTSSKDLTKFYVQDISDLSAKISMCAPDFNMEFSSACVHGQDIVRESENSAVHVDLDFGVVADLLKWIGPHTRVKRNVKKAPCPTGTVQILVHAGPPAIKFILTNGSELEFTANNRVSFHGVKNMRINVQLKNFYQTLLNCAVTKLPCTLRIVTEHDTLLYVASRNGLFAVENFLTEEPFQRGDPFDKNYVGNSGKSRGGGGGGGSLSSLANAGGLHDDGPGLDNDLMNEPMGLGGLGGGGGGGGKKHDRGGGGGSGTRKMSSGGGGGDHDHGLSSKEKYEQHKITSYLTSKGGSGGGGGGGGGGLDRNSGNYFNDAKEESDSEDSVTFEFVPNTKKQKCG
notes: also called LexA-UL44; GAD-UL44; source: yeast two-hybrid fusion (S. cerevisiae L40)

What all share (experiment): two-hybrid
The target in assay [1] is B3. Particulars: partners not purified.
Assay [2] has as its target T1, HCMV UL44 (DNA polymerase processivity factor), full-length, yeast two-hybrid fusion (human cytomegalovirus (HCMV)), P16790.
T1 chain: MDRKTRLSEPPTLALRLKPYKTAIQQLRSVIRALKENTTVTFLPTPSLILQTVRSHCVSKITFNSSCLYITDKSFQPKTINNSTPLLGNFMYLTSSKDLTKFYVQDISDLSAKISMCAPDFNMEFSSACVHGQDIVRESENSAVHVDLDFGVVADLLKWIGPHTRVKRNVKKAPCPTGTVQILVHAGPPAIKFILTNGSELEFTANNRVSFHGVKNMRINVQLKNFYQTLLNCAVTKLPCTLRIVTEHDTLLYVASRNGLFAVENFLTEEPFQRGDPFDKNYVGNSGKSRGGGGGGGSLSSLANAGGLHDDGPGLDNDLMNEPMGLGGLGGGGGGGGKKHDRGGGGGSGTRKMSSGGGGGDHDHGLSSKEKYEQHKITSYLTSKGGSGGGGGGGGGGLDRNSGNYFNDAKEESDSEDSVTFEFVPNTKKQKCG
Particulars: remark: other sources report otherwise.

Assay [3] deals with T2, human Ubc9 (SUMO-conjugating enzyme E2), yeast two-hybrid fusion (human, UniProt P63279 1-158).
T2 construct: also called GAD-Ubc9; LexA-Ubc9
Conditions: partners not purified.

T2 sequence (P63279 whole entry, the tested form may be a part): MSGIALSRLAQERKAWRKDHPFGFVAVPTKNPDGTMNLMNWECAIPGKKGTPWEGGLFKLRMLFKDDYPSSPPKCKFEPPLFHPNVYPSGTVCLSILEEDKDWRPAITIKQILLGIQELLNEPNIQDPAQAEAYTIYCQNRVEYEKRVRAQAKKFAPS

B1: HCMV UL54 (DNA polymerase catalytic subunit), GAD fusion (enzyme)
chain: MFFNPYLSGGVTGGAVAGGRRQRSQPGSAQGSGKRPPQKQFLQIVPRGVMFDGQTGLIKHKTGRLPLMFYREIKHLLSHDMVWPCPWRETLVGRVVGPIRFHTYDQTDAVLFFDSPENVSPRYRQHLVPSGNVLRFFGATEHGYSICVNVFGQRSYFYCEYSDTDRLREVIASVGELVPEPRTPYAVSVTPATKTSIYGYGTRPVPDLQCVSISNWTMARKIGEYLLEQGFPVYEVRVDPLTRLVIDRRITTFGWCSVNRYDWRQQGRASTCDIEVDCDVSDLVAVPDDSSWPRYRCLSFDIECMSGEGGFPCAEKSDDIVIQISCVCYETGGNTAVDQGIPNGNDGRGCTSEGVIFGHSGLHLFTIGTCGQVGPDVDVYEFPSEYELLLGFMLFFQRYAPAFVTGYNINSFDLKYILTRLEYLYKVDSQRFCKLPTAQGGRFFLHSPAVGFKRQYAAAFPSASHNNPASTAATKVYIAGSVVIDMYPVCMAKTNSPNYKLNTMAELYLRQRKDDLSYKDIPRCFVANAEGRAQVGRYCLQDAVLVRDLFNTINFHYEAGAIARLAKIPLRRVIFDGQQIRIYTSLLDECACRDFILPNHYSKGTTVPETNSVAVSPNAAIISTAAVPGDAGSVAAMFQMSPPLQSAPSSQDGVSPGSGSNSSSSVGVFSVGSGSSGGVGVSNDNHGAGGTAAVSYQGATVFEPEVGYYNDPVAVFDFASLYPSIIMAHNLCYSTLLVPGGEYPVDPADVYSVTLENGVTHRFVRASVRVSVLSELLNKWVSQRRAVRECMRECQDPVRRMLLDKEQMALKVTCNAFYGFTGVVNGMMPCLPIAASITRIGRDMLERTARFIKDNFSEPCFLHNFFNQEDYVVGTREGDSEESSALPEGLETSSGGSNERRVEARVIYGDTDSVFVRFRGLTPQALVARGPSLAHYVTACLFVEPVKLEFEKVFVSLMMICKKRYIGKVEGASGLSMKGVDLVRKTACEFVKGVTRDVLSLLFEDREVSEAAVRLSRLSLDEVKKYGVPRGFWRILRRLVQARDDLYLHRVRVEDLVLSSVLSKDISLYRQSNLPHIAVIKRLAARSEELPSVGDRVFYVLTAPGVRTAPQGSSDNGDSVTAGVVSRSDAIDGTDDDADGGGVEESNRRGGEPAKKRARKPPSAVCNYEVAEDPSYVREHGVPIHADKYFEQVLKAVTNVLSPVFPGGETARKDKFLHMVLPRRLHLEPAFLPYSVKAHECC
notes: also called GAD-UL54; source: yeast two-hybrid fusion (S. cerevisiae L40)
As to B1, the β-gal expression in assay [1] amounted to 8240 Units.

B2: HCMV UL44 (DNA polymerase processivity factor), full-length, yeast two-hybrid fusion, P16790 1-433 (natural protein)
chain: MDRKTRLSEPPTLALRLKPYKTAIQQLRSVIRALKENTTVTFLPTPSLILQTVRSHCVSKITFNSSCLYITDKSFQPKTINNSTPLLGNFMYLTSSKDLTKFYVQDISDLSAKISMCAPDFNMEFSSACVHGQDIVRESENSAVHVDLDFGVVADLLKWIGPHTRVKRNVKKAPCPTGTVQILVHAGPPAIKFILTNGSELEFTANNRVSFHGVKNMRINVQLKNFYQTLLNCAVTKLPCTLRIVTEHDTLLYVASRNGLFAVENFLTEEPFQRGDPFDKNYVGNSGKSRGGGGGGGSLSSLANAGGLHDDGPGLDNDLMNEPMGLGGLGGGGGGGGKKHDRGGGGGSGTRKMSSGGGGGDHDHGLSSKEKYEQHKITSYLTSKGGSGGGGGGGGGGLDRNSGNYFNDAKEESDSEDSVTFEFVPNTKKQKCG
With B2, in assay [2], the β-gal expression was found to be 7640 Units.

With B3, in assay [3], the β-gal expression worked out at 6920 Units.

These data come from PMC3499415, “The Human Cytomegalovirus DNA Polymerase Processivity Factor UL44 Is Modified by SUMO in a DNA-Dependent Manner” (PLoS ONE, 2012).
